# Reference: US20240207432A1 (BIOSION, published 2024)
# Substitutions are numbered along the chain they refer to.
# T1: human TROP2-his protein (human, UniProt P09758 27-274)
# T1 construct: Biotin-labelled in the ELISAs, unlabelled analyte in Biacore; also called biotin-labeled human TROP2-his protein; biotin human Trop2-his
# T1 sequence: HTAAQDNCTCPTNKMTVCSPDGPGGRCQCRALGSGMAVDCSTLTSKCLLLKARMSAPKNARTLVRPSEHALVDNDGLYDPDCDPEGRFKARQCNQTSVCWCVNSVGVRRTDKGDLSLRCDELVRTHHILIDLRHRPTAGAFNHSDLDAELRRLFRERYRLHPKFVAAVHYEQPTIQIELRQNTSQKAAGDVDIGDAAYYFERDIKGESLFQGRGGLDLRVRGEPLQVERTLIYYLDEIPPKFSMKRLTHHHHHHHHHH
# T2: full length human TROP2 on 293F-TROP2 cells (human, UniProt P09758 27-323)
# T2 construct: also called 293F-TROP2 cells (clone ID #3A8); cell surface TROP2
# T2 sequence: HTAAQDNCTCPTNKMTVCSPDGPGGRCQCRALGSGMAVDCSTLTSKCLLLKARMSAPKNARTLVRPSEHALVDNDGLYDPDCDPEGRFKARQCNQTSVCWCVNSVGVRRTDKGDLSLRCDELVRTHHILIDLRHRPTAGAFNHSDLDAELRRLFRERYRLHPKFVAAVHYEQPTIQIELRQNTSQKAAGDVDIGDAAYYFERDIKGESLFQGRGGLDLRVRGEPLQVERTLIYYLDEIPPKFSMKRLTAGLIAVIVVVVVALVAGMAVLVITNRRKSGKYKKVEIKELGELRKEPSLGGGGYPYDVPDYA
# B1: mouse antibody A1E11A12D1 (antibody, V domains shown)
# VH: QVQLQQSGAELARPGASVKLSCMASGYTFTTYGISWVRQRTGQGLEWIGQIYPGSDYSYCDEDFKGKATLTADKSSSTAYMQLSSLTSEDSAVYFCARASYFDYWGQGTTLTVSS
# VL: DILLTQSPAILSVSPGERVSFSCRASQTIGTAIHWYQQRANGSPRLLIKYASESISGIPSRFSGSGSGTDFALSINTVESEDFAYYYCQQSNNWPFTFGGGTKLEIR
# notes: Mouse monoclonal IgG purified from hybridoma supernatant
# B2: mouse antibody A1H3C5H8E12 (antibody, V domains shown)
# VH: QVQLQQSGAELVRPGTSVKMSCKAAGYTFTNYWIDWVKQRPGHGLEWIGNIFPGGFYTNYNEKFKGKATLTADTSSSTAYMQLSSLTSEDSAIYYCARGGVFDYWGQGTTLTVSS
# VL: B1 VL with T28S, A32S, A40T, A72T, T77S, F83I, Y85D, N93S, F96Y, R107K
# notes: as for B1
# B3: huA1E4F7D4-V16 (antibody, human IgG1, kappa, V domains shown)
# VH: QVQLVQSGAEVKKPGASVKVSCKASGYSFTTHWIHWVRQAPGQGLEWIGTIFPSNAYAVYNQKFRDRATMTADTSISTAYIELSRLRSDDTAVYYCARASYFDYWGQGTTVTVSS
# VL: EIVLTQSPATLSLSPGERATLSCRASQNIGTSIHWFQQKPGGAPRLLIKYASESISGIPSRFSGSGSGTDFTLTISSLEPEDFAVYYCQHSHSWPFTFGQGTKLEIKR
# notes: Positions of the X residues are given in the claims; also called humanized antibody huA1E4F7D4-V16
# B4: benchmark (in house prepared sacituzumab) (antibody, human IgG1, kappa, V domains shown)
# VH: SVQLQQSGSELKKPGASVKVSCKASGYTFTNYGMNWVKQAPGQGLKWMGWINTYTGEPTYTDDFKGRFAFSLDTSVSTAYLQISSLKADDTAVYFCARGGFGSSYWYFDVWGQGSLVTVSS
# VL: DIQLTQSPSSLSASVGDRVSITCKASQDVSIAVAWYQQKPGKAPKLLIYSASYRYTGVPDRFSGSGSGTDFTLTISSLQPEDFAVYYCQQHYITPLTFGAGTKVEIKR
# notes: also called BM; BM1
# B5: mouse antibody A1E4F7D4 (antibody, V domains shown)
# VH: QVQLQQSGAELAKPGTSVKMSCEASGYSFTTHWIHWMKQRPGQGLEWIGTIFPSNAYAVYNQKFRDRAIMTADRSSTTAYIQLTGLTSEDSAVYYCARASYFDYWGQGTTLTVSS
# VL: DILLTQSPATLSVSPGERVTFSCRASQNIGTSIHWFQQRTTGSPRLLIKYASESISGIPSRFSGSGSGTDFTLHINSVESEDIAHYYCQHSHSWPFTFGSGTKLEIQ
# notes: Mouse monoclonal IgG purified from hybridoma supernatant; also called Mouse A1E4F7D4
# Columns and labels:
# human TROP2-his protein [1] = target: T1, human TROP2-his protein; assay: competitive ELISA: mouse A1E4F7D4 coated at 2 ug/mL, antibody premixed with biotin human TROP2-his; blocked: binding of TROP2-his to coated A1E4F7D4
# Procedure: (§1) The mouse anti-TROP2 antibodies were tested for epitope binding in a competitive ELISA assay. […] ELISA plates were washed once with wash buffer (PBS+0.05% v/v Tween-20, PBST) and then blocked with 200 μl blocking buffer (5% w/v non-fatty milk in PBST) for 2 hours at 37° C. While blocking, the anti-TROP2 antibodies or controls were diluted with biotin labeled human TROP2-his protein (SEQ ID NO: 67, 34 ng/mL in 2.5% wA non-fatty milk in PBST), starting at 80 nM with a 5-fold serial dilution, and incubated at room temperature for 40 minutes. After plate washing for 4 times, the antibody/TROP2-his protein mixtures were added to the antibody coated plates, 100 μl per well. After incubation at 37° C. for 40 minutes, plates were washed 4 times again using wash buffer. Then the plates were added and incubated with 100 μl Peroxidase Streptavidin (1:10000 dilution in PBST buffer. Jackson Immunoresearch, Cat #016-030-084) for 40 minutes at 37° C. Plates were washed again using wash buffer. Finally, TMB was added and the reaction was stopped using 1M H₂SO₄. The absorbance of each well was read on a microplate reader using dual wavelength mode with 450 nm for TMB and 630 nm as the reference wavelength, and the OD (450-630) values were plotted against antibody concentration. Data was analyzed using Graphpad Prism software and IC₅₀ values were reported.
# human TROP2-his protein [2] = target: T1, human TROP2-his protein; assay: competitive ELISA: mouse A1E11A12D1 coated at 2 ug/mL, antibody premixed with biotin human TROP2-his; blocked: binding of TROP2-his to coated A1E11A12D1 (self-competition)
# Procedure: as §1
# human TROP2-his protein [3] = target: T1, human TROP2-his protein; assay: competitive ELISA: mouse A1H3C5H8E12 coated at 2 ug/mL, antibody premixed with biotin human TROP2-his; blocked: binding of TROP2-his to coated A1H3C5H8E12 (self-competition); no lower plateau reached at 80 nM
# Procedure: as §1
# human TROP2-his protein [4] = target: T1, human TROP2-his protein; assay: SPR Biacore, human TROP2-his analyte
# [5] = target: T2, full length human TROP2 on 293F-TROP2 …; assay: FACS on 293F-TROP2 cells, MFI
# human TROP2-his protein [6] = target: T1, human TROP2-his protein; assay: capture ELISA, antibody captured on anti-human IgG Fc coat, biotin human TROP2-his in solution, OD(450-630)
# Procedure: Plates were washed once with wash buffer (PBS+0.05% v/v Tween-20, PBST) and then blocked with 200 μl/well blocking buffer (5% w/v non-fatty milk in PBST) for 2 hours at 37° C. […] Plates containing captured anti-TROP2 antibodies were incubated with biotin-labeled human TROP2-his protein (prepared in house, SEQ ID NO: 67, 56.7 ng/mL in 2.5% w/v non-fatty milk in PBST, 100 μl/well) for 40 minutes at 37° C., washed 4 times, and incubated with streptavidin conjugated HRP (1:10000 dilution in PBST, Jackson Immuno Research, Cat #016-030-084, 100 μl/well) for 40 minutes at 37° C. After a final wash, plates were incubated with 100 μl/well ELISA substrate TMB (Innoreagents, Cat #TMB-S-002) at room temperature. The reaction was stopped in 3-10 minutes at room temperature with 50 μl/well 1M H₂SO₄, and the absorbance of each well was read on a microplate reader using dual wavelength mode with 450 nm for TMB and 630 nm as the reference wavelength. The OD (450-630) values were plotted against antibody concentration. Data was analyzed using Graphpad Prism software and EC₅₀ values were reported.
# For the capture ELISA, AffiniPure Goat Anti-Human IgG, Fcγ fragment specific (Jackson Immuno Research, Cat #109-005-098) was used instead of AffiniPure Goat Anti-Mouse IgG, Fcγ fragment specific, 100 μl/well.
# human TROP2-his protein [7] = target: T1, human TROP2-his protein; assay: competitive ELISA: BM1 coated at 1 ug/mL, antibody premixed with biotin human TROP2-his; blocked: binding of TROP2-his to coated BM1 (self-competition)
# Procedure: as §1
# human TROP2-his protein [8] = target: T1, human TROP2-his protein; assay: competitive ELISA: BM1 coated, antibody premixed with biotin human TROP2-his; blocked: binding of TROP2-his to coated BM1 (self-competition), OD falls from about 1.9 to about 0.05
# human TROP2-his protein [9] = target: T1, human TROP2-his protein; assay: capture ELISA, captured antibody, biotin human TROP2-his in solution, OD(450-630)
binder,measurement,setting,value
B1,IC50,human TROP2-his protein [1],0.102 nM
same,IC50,human TROP2-his protein [2],1 nM
B2,IC50,human TROP2-his protein [3],7 nM
B3,Kd,human TROP2-his protein [4],0.196 nM
same,koff,human TROP2-his protein [4],7.92e-05 s⁻¹
same,kon,human TROP2-his protein [4],404000 M⁻¹ s⁻¹
same,EC50,[5],0.362 nM
B4,EC50,human TROP2-his protein [6],0.357 nM
same,IC50,human TROP2-his protein [7],0.632 nM
same,IC50,human TROP2-his protein [8],0.88 nM
B5,EC50,human TROP2-his protein [9],0.147 nM
